The values below come from the RNAGym collection of RNA variant scans (doi:10.7554/elife.80360).

The labels stand for the following.
B1: CPEB3 Ribozyme (parent)
chain: GGGGGCCACAGCAGAAGCGUUCACGUCGCGGCCCCUGUCAGAUUCUGGUGAAUCUGCGAAUUCUGCUGU

The variants in this data set derive from B1. Kind of data set: self-cleavage, relative activity (ratio to wild type); higher = more cleavage; co-transcriptional.
As to GGGGGCCACAGCAGAAGCGUUCACGUCGCGGCCCUUGUCAGCUUCUGGUGAAUCUGCGAAUUCUGCUGU [C35U A42C], the self-cleavage stood at 0.81.

GGGGGCCACAGCAGAAGCGUUCACGUCGCGGCCCUUGUCAGUUUCUGGUGAAUCUGCGAAUUCUGCUGU [C35U A42U]: the self-cleavage turned out to be 0.907.

Take GGGGGCCACAGCAGAAGCGUUCACGUCGCGGCCCUUGUCAGGUUCUGGUGAAUCUGCGAAUUCUGCUGU [C35U A42G]: the self-cleavage was 0.943.

Consider GGGGGCCACAGCAGAAGCGUUCACGUCGCGGCCCGUGUCAGAUUCUGGUGAAUCUGCGAUUUCUGCUGU [C35G A60U], for which the self-cleavage worked out at 0.217.

Consider GGGGGCCACAGCAGAAGCGUUCACGUCGCGGCCCGUGUCAGAUUCUGGUGAAUCUGCGAGUUCUGCUGU [C35G A60G], for which the self-cleavage amounted to 0.239.

On to GGGGGCCACAGCAGAAGCGUUCACGUCGCGGCCCGUGUCAGAUUCUGGUGAAUCUGCGACUUCUGCUGU [C35G A60C], for which the self-cleavage was 0.348.

On to GGGGGCCACAGCAGAAGCGUUCACGUCGCGGCCCUUGUCAGAUUCUGGUGAAUCUGCGAAUUCUGAUGU [C35U C66A], for which the self-cleavage came to 0.828.

For GGGGGCCACAGCAGAAGCGUUCACGUCGCGGCCCGUGUCAGAUUCUGGUGAAUCUGCGAAUUCUUCUGU [C35G G65U], the self-cleavage is 0.223.

GGGGGCCACAGCAGAAGCGUUCACGUCGCGGCCCGUGUCAGAUUCUGGUGAAUCUGAGAAUUCUGCUGU [C35G C57A]: the self-cleavage stood at 0.243.

Consider GGGGGCCACAGCAGAAGCGUUCACGUCGCGGCCCGUGUCAGAUUCUGGUGAAUCUGGGAAUUCUGCUGU [C35G C57G], for which the self-cleavage turned out to be 0.212.

As to GGGGGCCACAGCAGAAGCGUUCACGUCGCGGCCCGUGUCAGAUUCUGGUGGAUCUGCGAAUUCUGCUGU [C35G A51G], the self-cleavage amounted to 0.461.

As to GGGGGCCACAGCAGAAGCGUUCACGUCGCGGCCCGUGUCAGAUUCUGGUGUAUCUGCGAAUUCUGCUGU [C35G A51U], the self-cleavage was 0.445.

As to GGGGGCCACAGCAGAAGCGUUCACGUCGCGGCCCGUGUCAGAUUCUGGUGAAUCUUCGAAUUCUGCUGU [C35G G56U], the self-cleavage worked out at 0.307.

As for GGGGGCCACAGCAGAAGCGUUCACGUCGCGGCCCGUGUCAGAUUCUGGUGAAUCUACGAAUUCUGCUGU [C35G G56A], the self-cleavage is 0.297.

For the variant GGGGGCCACAGCAGAAGCGUUCACGUCGCGGCCCGUGUCAGAUUCUGGUGAAUCUCCGAAUUCUGCUGU [C35G G56C], the self-cleavage worked out at 0.331.

In the case of GGGGGCCACAGCAGAAGCGUUCACGUCGCGGCCCGUGUCAGAUUCUGGUGAAUCUGCUAAUUCUGCUGU [C35G G58U], the self-cleavage is 0.375.

Turning to GGGGGCCACAGCAGAAGCGUUCACGUCGCGGCCCGUGUCAGAUUCUGGUGAAUCUGCCAAUUCUGCUGU [C35G G58C], the self-cleavage amounted to 0.295.

Regarding GGGGGCCACAGCAGAAGCGUUCACGUCGCGGCCCGUGUCAGAUUCUGGUGACUCUGCGAAUUCUGCUGU [C35G A52C], the self-cleavage is 0.433.

Take GGGGGCCACAGCAGAAGCGUUCACGUCGCGGCCCGUGUCAGAUUCUGGUGAUUCUGCGAAUUCUGCUGU [C35G A52U]: the self-cleavage was 0.474.

On to GGGGGCCACAGCAGAAGCGUUCACGUCGCGGCCCGUGUCAGAUUCUGGUGAAUCUGCGAAUUCUGCUGG [C35G U69G], for which the self-cleavage came to 0.545.

In the case of GGGGGCCACAGCAGAAGCGUUCACGUCGCGGCCCGUGUCAGAUUCUGGUGAAUCUGCGAAUUCUGCUGA [C35G U69A], the self-cleavage stood at 0.543.

Take GGGGGCCACAGCAGAAGCGUUCACGUCGCGGCCCGUGUCAGAUUCUGGUGAAUCUGCGAAUUCUGCUGC [C35G U69C]: the self-cleavage came to 0.77.

Turning to GGGGGCCACAGCAGAAGCGUUCACGUCGCGGCCCGUGUCAGAUUCUGGCGAAUCUGCGAAUUCUGCUGU [C35G U49C], the self-cleavage was determined as 0.513.

As to GGGGGCCACAGCAGAAGCGUUCACGUCGCGGCCCGUGUCAGACUCUGGUGAAUCUGCGAAUUCUGCUGU [C35G U43C], the self-cleavage is 0.372.

For GGGGGCCACAGCAGAAGCGUUCACGUCGCGGCCCGUGUCAGAAUCUGGUGAAUCUGCGAAUUCUGCUGU [C35G U43A], the self-cleavage is 0.335.

Regarding GGGGGCCACAGCAGAAGCGUUCACGUCGCGGCCCGUGUCAGAGUCUGGUGAAUCUGCGAAUUCUGCUGU [C35G U43G], the self-cleavage is 0.31.

For GGGGGCCACAGCAGAAGCGUUCACGUCGCGGCCCGUAUCAGAUUCUGGUGAAUCUGCGAAUUCUGCUGU [C35G G37A], the self-cleavage turned out to be 0.219.

For GGGGGCCACAGCAGAAGCGUUCACGUCGCGGCCCGUUUCAGAUUCUGGUGAAUCUGCGAAUUCUGCUGU [C35G G37U], the self-cleavage is 0.257.

On to GGGGGCCACAGCAGAAGCGUUCACGUCGCGGCCCGUCUCAGAUUCUGGUGAAUCUGCGAAUUCUGCUGU [C35G G37C], for which the self-cleavage turned out to be 0.206.

As to GGGGGCCACAGCAGAAGCGUUCACGUCGCGGCCCUUGUCAGAUUCUGGUGAGUCUGCGAAUUCUGCUGU [C35U A52G], the self-cleavage is 0.974.

As for GGGGGCCACAGCAGAAGCGUUCACGUCGCGGCCCUUGUCAGAUUCUGGUGAUUCUGCGAAUUCUGCUGU [C35U A52U], the self-cleavage came to 0.973.

For GGGGGCCACAGCAGAAGCGUUCACGUCGCGGCCCGUGUCAGAUUCUGGUGAAUCUGCGAAUUCUGCUCU [C35G G68C], the self-cleavage was determined as 0.77.

In the case of GGGGGCCACAGCAGAAGCGUUCACGUCGCGGCCCGUGUCAGAUUCUGGUGAAUCUGCGAAUUCUGCUAU [C35G G68A], the self-cleavage turned out to be 0.741.

With GGGGGCCACAGCAGAAGCGUUCACGUCGCGGCCCGUGUCAGAUUCUGGUGAAUCUGCGAAUUCGGCUGU [C35G U64G], the self-cleavage was determined as 0.304.

Consider GGGGGCCACAGCAGAAGCGUUCACGUCGCGGCCCGUGUCAGAUUCUGGUGAAUCUGCGAAUUCCGCUGU [C35G U64C], for which the self-cleavage amounted to 0.274.

Take GGGGGCCACAGCAGAAGCGUUCACGUCGCGGCCCUUGUCAGAUUCUGGUGAAUCUGCGCAUUCUGCUGU [C35U A59C]: the self-cleavage was found to be 0.41.

As for GGGGGCCACAGCAGAAGCGUUCACGUCGCGGCCCUUGUCAGAUUCUGGUGAAUCUGCGGAUUCUGCUGU [C35U A59G], the self-cleavage was 0.999.

Consider GGGGGCCACAGCAGAAGCGUUCACGUCGCGGCCCUUGUCAGAUUCUGGUGAAUCUGCGUAUUCUGCUGU [C35U A59U], for which the self-cleavage was found to be 0.564.

Take GGGGGCCACAGCAGAAGCGUUCACGUCGCGGCCCUUGUCGGAUUCUGGUGAAUCUGCGAAUUCUGCUGU [C35U A40G]: the self-cleavage came to 0.914.
